Experimental data: the supplement of paper PMC9112550, “Optimization of the antimicrobial peptide Bac7 by deep mutational scanning” (BMC Biology, 2022)

Each sequence was assayed on Escherichia coli TOP10 (assay: shrunken log2 fold change of peptide-encoding DNA abundance (4.5 h post-induction vs induction); higher = less antimicrobial activity (less host growth inhibition)). Conditions: time post-induction: 4.5 h; library: site-saturation at positions 5, 18, 19, 20.
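Note: peptides expressed intracellularly from a pBAD plasmid library in pooled LB shake-flask culture, induced with 0.3% L-arabinose, DNA abundance read by NGS, three biological replicates, DESeq2 with apeglm shrinkage.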

Sequence	shrunken log2 fold change
RRIRWRPPRLPRPRPRPFCEPRP	0.376
RRIRYRPPRLPRPRPRPMWKPRP	-0.00663
RRIRTRPPRLPRPRPRPMYIPRP	-1.2
RRIRIRPPRLPRPRPRPISAPRP	-0.0879
RRIRYRPPRLPRPRPRPQMQPRP	-0.794
RRIRYRPPRLPRPRPRPFSSPRP	0.015
RRIRDRPPRLPRPRPRPLCMPRP	0.43
RRIRHRPPRLPRPRPRPIPKPRP	-0.0389
RRIRDRPPRLPRPRPRPLCGPRP	0.32
RRIRWRPPRLPRPRPRPMRKPRP	1.4
RRIRIRPPRLPRPRPRPVLPPRP	-0.242
RRIRMRPPRLPRPRPRPRPLPRP	1.17
RRIRQRPPRLPRPRPRPAPDPRP	0.261
RRIRTRPPRLPRPRPRPINNPRP	-0.793
RRIRVRPPRLPRPRPRPELMPRP	-0.0669
RRIRCRPPRLPRPRPRPWPPPRP	1.08
RRIRLRPPRLPRPRPRPTWGPRP	0.637
RRIRRRPPRLPRPRPRPDEEPRP	0.526
RRIRERPPRLPRPRPRPCQEPRP	-0.181
RRIRDRPPRLPRPRPRPKQRPRP	0.314
RRIRDRPPRLPRPRPRPVMVPRP	0.111
RRIRDRPPRLPRPRPRPRGNPRP	0.088
RRIRHRPPRLPRPRPRPVTPPRP	-0.00938
RRIRNRPPRLPRPRPRPFQLPRP	-0.228
RRIRQRPPRLPRPRPRPHVQPRP	-0.46

Sequence	shrunken log2 fold change
RRIRFRPPRLPRPRPRPKVDPRP	-0.0492
RRIRMRPPRLPRPRPRPEFLPRP	0.113
RRIRMRPPRLPRPRPRPQHLPRP	-0.344
RRIRCRPPRLPRPRPRPHDFPRP	-0.0215
RRIRLRPPRLPRPRPRPFEPPRP	0.00273
RRIRWRPPRLPRPRPRPFCTPRP	-0.137
RRIRERPPRLPRPRPRPYTPPRP	-1
RRIRRRPPRLPRPRPRPEFNPRP	0.25
RRIRHRPPRLPRPRPRPICRPRP	0.0125
RRIRPRPPRLPRPRPRPEVSPRP	0.0949
RRIRHRPPRLPRPRPRPFWPPRP	0.131
RRIRTRPPRLPRPRPRPYISPRP	-0.382
RRIRCRPPRLPRPRPRPLYWPRP	-0.201
RRIRHRPPRLPRPRPRPWRIPRP	-0.0502
RRIRHRPPRLPRPRPRPDDNPRP	-0.0371
RRIRMRPPRLPRPRPRPYCVPRP	0.117
RRIRERPPRLPRPRPRPWPMPRP	0.00819
RRIRVRPPRLPRPRPRPFEKPRP	-0.00236
RRIRMRPPRLPRPRPRPLAIPRP	0.173
RRIRARPPRLPRPRPRPCWVPRP	0.237
RRIRQRPPRLPRPRPRPCIKPRP	0.155
RRIRDRPPRLPRPRPRPVMNPRP	-0.343
RRIRFRPPRLPRPRPRPMSVPRP	-0.482
RRIRQRPPRLPRPRPRPYNHPRP	-0.047
RRIRLRPPRLPRPRPRPEIEPRP	-0.0912

Sequence	shrunken log2 fold change
RRIRMRPPRLPRPRPRPMWIPRP	-0.217
RRIRYRPPRLPRPRPRPIVTPRP	-0.015
RRIRIRPPRLPRPRPRPSWVPRP	-0.168
RRIRNRPPRLPRPRPRPAGAPRP	0.665
RRIRTRPPRLPRPRPRPIAAPRP	0.894
RRIRNRPPRLPRPRPRPELFPRP	-0.0281
RRIRKRPPRLPRPRPRPTQHPRP	0.748
RRIRTRPPRLPRPRPRPPGFPRP	0.287
RRIRSRPPRLPRPRPRPSEKPRP	0.029
RRIRLRPPRLPRPRPRPACEPRP	0.317
RRIRERPPRLPRPRPRPVFCPRP	-0.0447
RRIRWRPPRLPRPRPRPSAAPRP	0.921
RRIRVRPPRLPRPRPRPFIIPRP	-0.442
RRIRYRPPRLPRPRPRPTHNPRP	-0.702
RRIRLRPPRLPRPRPRPVAGPRP	0.0563
RRIRKRPPRLPRPRPRPMVAPRP	0.629
RRIRRRPPRLPRPRPRPICMPRP	0.296
RRIRGRPPRLPRPRPRPCMRPRP	0.767
RRIRSRPPRLPRPRPRPFLHPRP	-0.174
RRIRGRPPRLPRPRPRPEHTPRP	0.0464
RRIRYRPPRLPRPRPRPMDAPRP	-0.00112
RRIRGRPPRLPRPRPRPRPNPRP	0.64
RRIRVRPPRLPRPRPRPHYCPRP	-0.186
RRIRWRPPRLPRPRPRPLVMPRP	0.000565
RRIRNRPPRLPRPRPRPMNAPRP	-0.281

Sequence	shrunken log2 fold change
RRIRSRPPRLPRPRPRPNKWPRP	-0.0551
RRIRKRPPRLPRPRPRPHHMPRP	-0.0738
RRIRHRPPRLPRPRPRPYERPRP	-0.00674
RRIRIRPPRLPRPRPRPYIHPRP	-1.3
RRIRFRPPRLPRPRPRPTDPPRP	-0.0408
RRIRARPPRLPRPRPRPACIPRP	0.171
RRIRSRPPRLPRPRPRPCHPPRP	0.0162
RRIRNRPPRLPRPRPRPQGKPRP	0.0697
RRIRCRPPRLPRPRPRPHKDPRP	-0.636
RRIRWRPPRLPRPRPRPCFCPRP	0.126
RRIRMRPPRLPRPRPRPCGDPRP	0.34
RRIRHRPPRLPRPRPRPAKEPRP	0.0203
RRIRDRPPRLPRPRPRPKGEPRP	0.0647
RRIRRRPPRLPRPRPRPSVDPRP	0.168
RRIRERPPRLPRPRPRPFLGPRP	-0.284
RRIRARPPRLPRPRPRPLGQPRP	0.432
RRIRMRPPRLPRPRPRPTMQPRP	0.566
RRIRQRPPRLPRPRPRPMYSPRP	-0.746
RRIRERPPRLPRPRPRPYFNPRP	-0.583
RRIRRRPPRLPRPRPRPMRYPRP	0.236
RRIRVRPPRLPRPRPRPWAKPRP	-0.00459
RRIRHRPPRLPRPRPRPTPLPRP	0.243
RRIRQRPPRLPRPRPRPIPLPRP	-0.182
RRIRFRPPRLPRPRPRPQKFPRP	-0.259
RRIRRRPPRLPRPRPRPAQEPRP	0.146

Sequence	shrunken log2 fold change
RRIRPRPPRLPRPRPRPWNCPRP	-0.134
RRIRGRPPRLPRPRPRPWGSPRP	0.268
RRIRMRPPRLPRPRPRPNKDPRP	0.0301
RRIRVRPPRLPRPRPRPATVPRP	-0.154
RRIRARPPRLPRPRPRPDQNPRP	0.489
RRIRNRPPRLPRPRPRPHSGPRP	-0.517
RRIRRRPPRLPRPRPRPGTRPRP	0.117
RRIRNRPPRLPRPRPRPNIKPRP	-0.641
RRIRKRPPRLPRPRPRPNDEPRP	0.179
RRIRSRPPRLPRPRPRPIRNPRP	-0.379
RRIRERPPRLPRPRPRPQRQPRP	0.0791
RRIRDRPPRLPRPRPRPVQCPRP	-0.242
RRIRTRPPRLPRPRPRPWSVPRP	-0.199
RRIRLRPPRLPRPRPRPQDVPRP	-0.0265
RRIRVRPPRLPRPRPRPCTPPRP	-0.13
RRIRKRPPRLPRPRPRPMIVPRP	0.00271
RRIRTRPPRLPRPRPRPQWGPRP	-0.0978
RRIRQRPPRLPRPRPRPHRNPRP	0.116
RRIRLRPPRLPRPRPRPPFPPRP	0.455
RRIRWRPPRLPRPRPRPFYAPRP	-0.174
RRIRHRPPRLPRPRPRPGDMPRP	-0.157
RRIRVRPPRLPRPRPRPVDPPRP	0.22
RRIRIRPPRLPRPRPRPAEWPRP	-0.124
RRIRSRPPRLPRPRPRPHLTPRP	-0.0599
RRIRIRPPRLPRPRPRPARQPRP	-0.0037
